Key:
[1] = biological target: T1, myc-NIK (NIK N-terminally fused to the myc tag) (human, UniProt Q99558 1-947); test: western blot of the p55 TNF receptor complex from NIK-deficient Ramos cells replenished with NIK (FIG. 6d)
T1 construct: Expressed in HEK293T cells for co-immunoprecipitation, the reporter test and the kinase test; also called myc-tagged NIK; wild type NIK
Experimental: (§1) Transfections, immunoblotting and immunoprecipitations were performed as described in Example 2 and Example 3 of the Examples section. For immunoprecipitation of the CD70/CD27 ligand-receptor complexes from resting PBMC and Ramos cells, cell lysates were prepared as described for the kinase tests aforementioned and incubated for 4 hours at 4° C. with 25 μl of 50% M2-FLAG agarose beads per ml of lysate. The TNF-receptor complex was precipitated as described (Zhang et al., 2000). The signalosome from cell lysates was immunoprecipitated using a 1:1 mixture of two different antibodies against IKK1 (M-280 and H-744, Santa Cruz). Immunoprecipitation was allowed to continue for 2 hours at 4° C., using 10 μg of anti-IKKα antibodies adsorbed to 25 μl of 50% protein-A-Sepharose beads per ml of lysate.
In NIK− cells, recruitment to the p55 TNF receptor occurred just as effectively as in the wild type cells (FIG. 6c, right panel). In contrast, recruitment of the signalosome components to CD27 was completely abolished (FIGS. 6c, d, left panels). Introduction of the wild type NIK, but not of “kinase-dead” NIK, to the NIK− cells reintated the recruitment in response to CD70 (FIG. 6d, middle and right panels). […] This recruitment could be observed both in cells expressing the wild type enzyme and in those that expressed its “[…]” mutant (FIG. 6d). […]

NF-κB2/p100, endogenous = biological target: T2, NF-κB2/p100, endogenous (human, UniProt Q00653 1-900); test: western blot of the p55 TNF receptor complex from Ramos cells (FIG. 6a)
T2 construct: mature
T2 sequence (looked up): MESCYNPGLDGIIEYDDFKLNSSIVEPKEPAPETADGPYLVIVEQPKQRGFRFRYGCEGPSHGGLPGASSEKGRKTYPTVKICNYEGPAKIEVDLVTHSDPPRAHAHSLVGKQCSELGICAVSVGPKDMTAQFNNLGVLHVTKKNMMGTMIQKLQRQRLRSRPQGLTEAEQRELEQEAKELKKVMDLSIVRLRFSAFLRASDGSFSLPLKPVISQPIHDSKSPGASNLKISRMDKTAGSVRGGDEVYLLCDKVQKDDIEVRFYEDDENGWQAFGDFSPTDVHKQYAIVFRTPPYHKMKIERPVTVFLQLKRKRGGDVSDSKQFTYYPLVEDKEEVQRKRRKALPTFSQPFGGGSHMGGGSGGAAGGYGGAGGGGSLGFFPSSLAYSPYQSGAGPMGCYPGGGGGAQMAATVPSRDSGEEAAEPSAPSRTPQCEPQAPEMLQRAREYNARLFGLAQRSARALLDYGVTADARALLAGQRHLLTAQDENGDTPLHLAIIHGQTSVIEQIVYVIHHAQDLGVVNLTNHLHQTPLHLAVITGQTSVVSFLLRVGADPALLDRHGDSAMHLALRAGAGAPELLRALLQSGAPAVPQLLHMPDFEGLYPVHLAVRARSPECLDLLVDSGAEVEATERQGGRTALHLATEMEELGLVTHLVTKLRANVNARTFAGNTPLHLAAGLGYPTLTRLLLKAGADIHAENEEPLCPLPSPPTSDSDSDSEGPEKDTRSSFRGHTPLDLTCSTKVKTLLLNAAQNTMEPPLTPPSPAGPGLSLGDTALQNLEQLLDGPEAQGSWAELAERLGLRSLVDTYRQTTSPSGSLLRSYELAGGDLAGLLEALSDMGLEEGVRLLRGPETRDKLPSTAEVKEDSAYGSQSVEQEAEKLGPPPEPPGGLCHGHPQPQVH
Experimental: as §1

p65, endogenous = biological target: T3, p65, endogenous (human, UniProt Q04206 1-551); test: as above
T3 construct: mature; also called RelA
Experimental: as §1

p50, endogenous = biological target: T4, p50, endogenous (human, UniProt P19838 1-433); test: as above
T4 construct: also called NF-κB1 processed form
T4 sequence (looked up): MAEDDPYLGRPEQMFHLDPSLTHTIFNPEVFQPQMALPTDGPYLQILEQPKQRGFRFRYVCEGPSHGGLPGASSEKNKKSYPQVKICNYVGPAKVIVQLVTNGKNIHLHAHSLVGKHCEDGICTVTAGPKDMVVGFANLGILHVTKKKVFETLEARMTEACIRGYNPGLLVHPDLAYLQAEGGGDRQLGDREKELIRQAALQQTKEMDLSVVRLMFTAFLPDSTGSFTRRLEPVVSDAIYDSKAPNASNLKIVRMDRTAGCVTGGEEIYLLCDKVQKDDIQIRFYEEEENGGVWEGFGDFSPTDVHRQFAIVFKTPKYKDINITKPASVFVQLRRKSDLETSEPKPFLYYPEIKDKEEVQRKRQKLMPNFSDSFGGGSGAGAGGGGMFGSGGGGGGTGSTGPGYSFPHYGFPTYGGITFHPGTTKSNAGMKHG
Experimental: as §1

IKK1, endogenous = biological target: T5, IKK1, endogenous (human, UniProt O15111 1-745); test: western blot of the p55 TNF receptor complex from Ramos cells after TNF (FIG. 5c)
T5 construct: mature; also called IKKα
T5 sequence (looked up): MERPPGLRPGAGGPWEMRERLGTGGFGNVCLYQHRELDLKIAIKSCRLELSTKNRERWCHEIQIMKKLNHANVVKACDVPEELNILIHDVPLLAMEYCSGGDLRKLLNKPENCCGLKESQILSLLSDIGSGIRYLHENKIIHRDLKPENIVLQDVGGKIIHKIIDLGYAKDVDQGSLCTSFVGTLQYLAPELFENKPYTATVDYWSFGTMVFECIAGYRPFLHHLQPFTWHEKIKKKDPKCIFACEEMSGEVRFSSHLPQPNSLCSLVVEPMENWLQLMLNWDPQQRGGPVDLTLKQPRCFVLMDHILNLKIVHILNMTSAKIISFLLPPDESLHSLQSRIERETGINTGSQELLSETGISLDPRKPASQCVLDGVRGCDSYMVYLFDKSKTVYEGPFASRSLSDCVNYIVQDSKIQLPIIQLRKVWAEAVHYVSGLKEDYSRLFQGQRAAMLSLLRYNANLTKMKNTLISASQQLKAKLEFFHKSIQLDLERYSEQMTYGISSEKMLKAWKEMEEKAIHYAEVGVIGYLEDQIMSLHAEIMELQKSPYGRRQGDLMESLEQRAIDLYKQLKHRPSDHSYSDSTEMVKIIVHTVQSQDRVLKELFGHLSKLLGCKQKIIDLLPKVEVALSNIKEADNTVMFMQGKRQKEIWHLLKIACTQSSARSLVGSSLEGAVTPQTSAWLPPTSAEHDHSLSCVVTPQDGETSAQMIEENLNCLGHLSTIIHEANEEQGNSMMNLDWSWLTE

T3 sequence (Q04206 whole entry): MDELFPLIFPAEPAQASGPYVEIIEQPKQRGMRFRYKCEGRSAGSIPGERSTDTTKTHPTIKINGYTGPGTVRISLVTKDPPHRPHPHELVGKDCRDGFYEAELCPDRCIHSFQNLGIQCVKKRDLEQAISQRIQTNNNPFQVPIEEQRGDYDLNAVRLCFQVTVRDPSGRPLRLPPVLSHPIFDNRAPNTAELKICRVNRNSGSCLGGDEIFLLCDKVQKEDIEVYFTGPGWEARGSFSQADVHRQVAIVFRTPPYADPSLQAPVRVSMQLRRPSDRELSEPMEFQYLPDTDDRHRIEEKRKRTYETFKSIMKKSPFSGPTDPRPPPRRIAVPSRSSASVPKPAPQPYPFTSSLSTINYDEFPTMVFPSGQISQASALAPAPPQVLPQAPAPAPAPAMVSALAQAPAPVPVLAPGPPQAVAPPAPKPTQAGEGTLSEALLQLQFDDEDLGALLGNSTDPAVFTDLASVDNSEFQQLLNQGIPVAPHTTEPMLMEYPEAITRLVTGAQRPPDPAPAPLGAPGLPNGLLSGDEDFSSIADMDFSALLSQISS
T1 sequence (Q99558 other isoform, or with tags, fused parts or gaps): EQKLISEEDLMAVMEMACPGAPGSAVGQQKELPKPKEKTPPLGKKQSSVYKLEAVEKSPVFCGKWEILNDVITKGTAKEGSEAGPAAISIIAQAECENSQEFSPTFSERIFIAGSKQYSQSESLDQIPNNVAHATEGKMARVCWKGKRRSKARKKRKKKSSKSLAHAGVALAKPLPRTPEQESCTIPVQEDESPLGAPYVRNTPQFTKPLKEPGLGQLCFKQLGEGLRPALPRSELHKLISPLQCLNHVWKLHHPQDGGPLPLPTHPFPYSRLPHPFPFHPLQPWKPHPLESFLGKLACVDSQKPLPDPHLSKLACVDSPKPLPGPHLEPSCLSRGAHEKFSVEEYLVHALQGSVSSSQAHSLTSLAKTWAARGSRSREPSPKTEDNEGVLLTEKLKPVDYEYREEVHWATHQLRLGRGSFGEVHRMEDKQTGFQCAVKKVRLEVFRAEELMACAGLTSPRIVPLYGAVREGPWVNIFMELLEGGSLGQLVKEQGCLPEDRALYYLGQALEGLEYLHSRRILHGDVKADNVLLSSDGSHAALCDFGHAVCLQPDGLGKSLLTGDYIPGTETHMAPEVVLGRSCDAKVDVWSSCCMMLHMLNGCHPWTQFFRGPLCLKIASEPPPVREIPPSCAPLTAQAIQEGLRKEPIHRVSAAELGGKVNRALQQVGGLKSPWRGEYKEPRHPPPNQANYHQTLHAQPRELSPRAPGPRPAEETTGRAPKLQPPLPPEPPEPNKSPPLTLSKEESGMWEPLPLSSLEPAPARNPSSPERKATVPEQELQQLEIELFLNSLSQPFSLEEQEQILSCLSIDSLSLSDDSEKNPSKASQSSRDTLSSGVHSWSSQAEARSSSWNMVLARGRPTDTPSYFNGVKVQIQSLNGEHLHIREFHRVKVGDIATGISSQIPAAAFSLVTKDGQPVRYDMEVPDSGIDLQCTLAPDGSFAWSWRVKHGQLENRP

- binding result [1]: no binding
- binding result (NF-κB2/p100, endogenous): binds
- binding result (p65, endogenous): binds
- binding result (p50, endogenous): binds
- binding result (IKK1, endogenous): binds
B1: p55 TNF receptor, endogenous in Ramos cells (receptor, human, UniProt P19438 30-455, looked up)
chain: LVPHLGDREKRDSVCPQGKYIHPQNNSICCTKCHKGTYLYNDCPGPGQDTDCRECESGSFTASENHLRHCLSCSKCRKEMGQVEISSCTVDRDTVCGCRKNQYRHYWSENLFQCFNCSLCLNGTVHLSCQEKQNTVCTCHAGFFLRENECVSCSNCKKSLECTKLCLPQIENVKGTEDSGTTVLLPLVIFFGLCLLSLLFIGLMYRYQRWKSKLYSIVCGKSTPEKEGELEGTTTKPLAPNPSFSPTPGFTPTLGFSPVPSSTFTSSSTYTPGDCPNFAAPRREVAPPYQGADPILATALASDPIPNPLQKWEDSAHKPQSLDTDDPATLYAVVENVPPLRWKEFVRRLGLSDHEIDRLELQNGRCLREAQYSMLATWRRRTPRREATLELLGRVLRDMDLLGCLEDIEEALCGPAALPPAPSLLR
notes: whole, on cells; TNF-receptor complex precipitated as described by Zhang et al., 2000

Source: US20080025968A1 (YEDA RESEARCH AND DEVELOPMENT, published 2008)
